53 sequences from the supplement of paper PMC12764529 can be followed below.

± gives the half width of the 95% confidence interval.

The data set in a line: folding stability dG unfold (combined trypsin and chymotrypsin); higher = more stable. As to the method:
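Folding stability of de novo designed mini-proteins (<80 aa, no Cys; designed by TrROS, TrMRF, ProteinMPNN and the joint model) was measured by cDNA display proteolysis with trypsin and chymotrypsin. Each protease was used at 11 concentrations in a threefold dilution series plus a no-protease condition. K50 was inferred by Bayesian fitting of sequencing counts, and dG unfold was derived against a sequence-predicted unfolded-state K50 (Tsuboyama et al. method). Sequences shown include variable-length N-terminal GS-type padding (SAGGSAGG...) inside a display construct carrying a PA tag. Rows were kept only if the AF2 dimer inter-PAE was >15, to exclude likely homo-oligomers.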
For the sequence “SAGGSAGGSMKVRLLIGEEEVEKAIAEGIPKEVMKPEKEKIPSSTDPRFAGNPEPVLLYYIGESAGGSAGGS [r12_78_JUSTAS]”, the “folding stability dG unfold” value is less than -1 kcal/mol.
Take “SAGGSAGGSMPYEVTITDPNSDRTRTRKVSGDSPEISEAVPPSHTVTLTFGGTKTTLPVPALSSAGGSAGGS [r20_36_JUSTAS]”: the “folding stability dG unfold” value is less than -1 kcal/mol.
For “SAGGSAGGSMSIPSDATLVRTYRRGGEELTVSGSVDPATGTVLSEGSLSKRPDATLTEVSVVSSAGGSAGGS [r12_6_JUSTAS]”, the “folding stability dG unfold” value was less than -1 kcal/mol.
Take “SAGGSAGGSMTFKLKDGKVITYDPANPTLHFPGPPETIPTGGANIAQTIADLKAKGFDYEEVVESAGGSAGG [r6_340_JUSTAS]”: the “folding stability dG unfold” value is less than -1 kcal/mol.
The figure for “SAGGSAGGSMVEEFETTEFSPPEPLVRVERLKKEIFTFPENSLSYKVTPVEERLVTPEEVAAESAGGSAGGS [r12_374_JUSTAS]” is less than -1 kcal/mol.
The figure for “SAGGSAGGSMVEVVVRPPGGPEYRVSPETSPEEVRARVEAEAGPPPEIEISEEEAKALGVPARSAGGSAGGS [r12_379_JUSTAS]” is less than -1 kcal/mol; for “SAGGSAGGSNGNYRIKIKIRKPNGEPKSQHTFNIPSPEQIKESLAQQPGFPPDRIEDVEVGPYSAGGSAGGS [r12_182_TrROS]” it is less than -1 kcal/mol.
As for “SAGGSAGGSPKEYYIRVKDPEKAKEIMKPLGWPIKPGDEFPIKDPEDILEKLPGIEGIEIHPVSAGGSAGGS [r12_571_TrROS]”, the “folding stability dG unfold” value is less than -1 kcal/mol.
The figure for “SAGGSAGGSPLYIQIERRNPKNGENQTLELPIPIDGDPSDARDIAKEIAEQLPPNDYKIEVFRSAGGSAGGS [r12_871_TrROS]” is less than -1 kcal/mol.
For “SAGGSAGGSPPKPITIMAPYDSPEEAMDKAEEIADELANEGYDIKDVEIEYHPNNGYAMVRIRSAGGSAGGS [r20_155_TrROS]”, the “folding stability dG unfold” value is less than -1 kcal/mol.
As for “SAGGSAGGSPSITIEKDKEKPVYKVTVYTPNGEKKVFENPEGKKVTTDSNGGEIYIDDVKINVSAGGSAGGS [r12_346_TrMRF]”, the “folding stability dG unfold” value is less than -1 kcal/mol.
For the sequence “SAGGSAGGSPYKEIPFRFPENGYKVHIKKDPNGSVKIYVMGPNMRERTIPPDEPLEIEPGARLSAGGSAGGS [r12_1003_TrROS]”, the “folding stability dG unfold” value is -0.46 ± 0.63 kcal/mol.
Turning to “SAGGSAGGSRTIHIPHNAMDKMPPSFEKKIRELADELNIDIEHNNNWMTIPVKGLTEEAIKEFSAGGSAGGS [r12_945_TrROS]”, the “folding stability dG unfold” value was less than -1 kcal/mol.
On to “SAGGSAGGSSMPVLPVRTEEFPHPDSVYTVTTTRYPPTGATVTVLSTRFPGPPEVVTSTTVTPSAGGSAGGS [r12_14_JUSTAS]”, for which the “folding stability dG unfold” value is less than -1 kcal/mol.
On to “SAGGSAGGSSMSFSFSERRDGKEYSVSVTTAVTPLTLPNGTLRTLTTPTTTVTDPSGKVLSTSSAGGSAGGS [r20_224_JUSTAS]”, for which the “folding stability dG unfold” value was less than -1 kcal/mol.
With “SAGGSAGGSSMTPVSSTRSSPSNSVTYTTSRIPIDPSPGKVLNVTTTYSPDPSVTTTTTTVEPSSAGGSAGG [r6_13_JUSTAS]”, the “folding stability dG unfold” value is less than -1 kcal/mol.
As for “SAGGSAGGSTIPIRDPNREIEIVKHPDNMYRIEIEPNGGKREIILPPEAMQQKPITIEELIDQSAGGSAGGS [r20_90_TrROS]”, the “folding stability dG unfold” value is less than -1 kcal/mol.
In the case of “SAGGSAGGSTMEKLQDKAKELGPNVSVEPSQDGPDSIKITFDPDHPKKIKDIAKEYGIKVQIYSAGGSAGGS [r12_74_TrROS]”, the “folding stability dG unfold” value was less than -1 kcal/mol.
Consider “SAGGSAGGSVKELAKKAGIKDIDVEPHPNDGWVEIKITMKNPKNGKKREGNILIRDPKDGEPLSAGGSAGGS [r12_133_TrROS]”, for which the “folding stability dG unfold” value is less than -1 kcal/mol.
For the sequence “SAGGSAGGSVKITRTPNGYYTVKIEDPGGVPVEIPVPADDPGMTNKEAEDEVKPIAKEFKRLKSAGGSAGGS [r12_642_TrROS]”, the “folding stability dG unfold” value is less than -1 kcal/mol.
The figure for “SAGGSAGGSVVPIEYDEDGMLKIEHRNNDKKREHTIPADDADEMPPDFLKDLPPDKIDEITPYSAGGSAGGS [r12_793_TrROS]” is less than -1 kcal/mol; for “SAGGSAGGSYKLGSKLIKEVTSEATPGPSTLETITLEDKTYPITLVGDSLNISPELKKAIELNSAGGSAGGS [r20_92_JUSTAS]” it is less than -1 kcal/mol.
Turning to “SAGGSAGGVRVRVVYPDGEPIGEIDIQLPPEMPQDQRQVKELAENIASRFKENGRKVKVEIEPPSAGGSAGG [r6_884_TrROS]”, the “folding stability dG unfold” value was less than -1 kcal/mol.
Consider “SAGGSAGGVSKVLEVRPAPGSGTYTVRTLREDPATGTTTEEVLTIPTSRPEVVDSLPPDATVELSAGGSAGG [r6_979_JUSTAS]”, for which the “folding stability dG unfold” value was less than -1 kcal/mol.
On to “SAGGSAKITIEPVKDQYRIEIKIPVFDPNGKKDPIEIPMYMPPDDPERMKDQILDWAREKNPDLIISAGGSA [r15_1050_TrROS]”, for which the “folding stability dG unfold” value was less than -1 kcal/mol.
For the sequence “SAGGSAKIVIPGMSPSMIRHAIKEGVKKIHIVWPNPEQAKGFKKELEKEDGIPIKVVPAEEAKKLESAGGSA [r15_243_TrROS]”, the “folding stability dG unfold” value was less than -1 kcal/mol.
Regarding “SAGGSAKVTVDEKDLKVTVESNIPVLVTYTLPGGKKKPFAGYLPPEKIEEFAKKEAEKFATELLGKSAGGSA [r15_365_TrMRF]”, the “folding stability dG unfold” value was less than -1 kcal/mol.
For the sequence “SAGGSAMERRTFNLPADRVSPEVLLEKLKAVGLTPTEIKPVPDGVEVVVEYDPSKVEKLEKALKEGSAGGSA [r15_161_JUSTAS]”, the “folding stability dG unfold” value was less than -1 kcal/mol.
Turning to “SAGGSAMFEVRKLSEDPSTGVTTELITLPDGKEVTVTTTTDSSGNPTVTVTFPDGTVLSLEEVELESAGGSA [r15_832_JUSTAS]”, the “folding stability dG unfold” value was less than -1 kcal/mol.
Turning to “SAGGSAMIEVETRPLPTPRELVTVKFDSEELLPEVIEKLPGVEEVEVSESKGDGKPYYTATFVIPRSAGGSA [r15_344_JUSTAS]”, the “folding stability dG unfold” value was less than -1 kcal/mol.
Take “SAGGSAMTLVEEVPVAPGTLVEAESIAVSPEGKIYRSRVEGLEPGRARVTVPVEELPGNLEDPELISAGGSA [r15_909_JUSTAS]”: the “folding stability dG unfold” value is less than -1 kcal/mol.
Take “SAGGSAMVIEVEEEALSEEEAEEIKEEKLKEAKEKLPGEEPVELDIKVTVTVKEPEEKPYKKNILKSAGGSA [r15_663_JUSTAS]”: the “folding stability dG unfold” value was less than -1 kcal/mol.
For the sequence “SAGGSANFKIRMPNGRPMDIQPDPEGETWVIRMPGGHIIPIEIKDGKLKDIKILPGMPPNWSIEPVSAGGSA [r15_709_TrROS]”, the “folding stability dG unfold” value was less than -1 kcal/mol.
Regarding “SAGGSAPDFKIKDIKIPHRRNPNGMYRVEIKLEVPDGRKIPIEVPYNEDGKPTPEQIENAAKELAKSAGGSA [r15_233_TrROS]”, the “folding stability dG unfold” value was less than -1 kcal/mol.
On to “SAGGSAPEPYTFKMKNPKGPPVEITITRNPNNGNYMISVEMPGPGKKHEGPMPMEDLNNLPGLEPVSAGGSA [r15_622_TrROS]”, for which the “folding stability dG unfold” value was less than -1 kcal/mol.
As for “SAGGSAPPPKMKRIELKVEDPEHGYEVRVEVMIYPNDSISIQYESPNGKPLPKERAQKLLKELGIESAGGSA [r15_872_TrROS]”, the “folding stability dG unfold” value was less than -1 kcal/mol.
Regarding “SAGGSAPVIPVKSEEEAKEVAKAASPDKDLLFKYPKGNVKLITIDPKNGPKITVKETLPVSPEKALSAGGSA [r15_577_JUSTAS]”, the “folding stability dG unfold” value is less than -1 kcal/mol.
For the sequence “SAGGSATIKIPPGMDMEIDDVELNPDDKTVEVEITFGDGPMKARITPNGQKEIEMPNGQPFTIPIDSAGGSA [r15_111_TrROS]”, the “folding stability dG unfold” value is less than -1 kcal/mol.
As for “SAGGSATTTEKWTIGDPSGPPRTVDLTKLPNSDEYLITVTYPDPNHTETGLLSEEEIKKIPNAVPKSAGGSA [r15_622_JUSTAS]”, the “folding stability dG unfold” value was less than -1 kcal/mol.
The figure for “SAGGSEEFEFRDPFNGEEFEVTRDPNNGELDVEYPNGWKMRISITDDRFEIVEMKPVPPPPVDPDQKSAGGS [r16_687_TrROS]” is less than -1 kcal/mol; for “SAGGSGNPNAPVPYIPKGYKTVPIPLKGDPNASEEELKKKLEEAKEKIKKEIDPTPDGIPIEINEGSAGGSA [r2_149_JUSTAS]” it is less than -1 kcal/mol; for “SAGGSGTTSPVLVEETVFTDGSATYTRKKVELEEVERPPVPPVEIPEEAREAGLAGDYEAAEAILASAGGSA [r2_196_JUSTAS]” it is less than -1 kcal/mol.
In the case of “SAGGSKDKKMPPEQAKQVQVRVEIPIRVYRPGDGGEPHDFPIEIWGPMKSPEEADKEVNDAIDEFFSAGGSA [r2_244_TrROS]”, the “folding stability dG unfold” value is less than -1 kcal/mol.
Consider “SAGGSMPLETLETTGEYVPGTGVYVTKLAVGDPKSDVSFSVTETRPTTDPVTGTPSLYSKPVSFSYKKSAGG [r19_129_JUSTAS]”, for which the “folding stability dG unfold” value was less than -1 kcal/mol.
“SAGGSMTELIPTPPSATTLNVTKTVPDPRTGTTVTTNVTVEVVPEGDGYVATVYYDPSGRPVKRSLSAGGSA [r2_123_JUSTAS]”: the “folding stability dG unfold” value is less than -1 kcal/mol.
The figure for “SAGGSNPLLDELKDKPFRLPNIRDPGNGRDFPGVPIKIKEAEPPKDDGKISIKVEHPDGPYEMQIDSAGGSA [r2_314_TrROS]” is less than -1 kcal/mol.
As to “SAGGSPKIQIDQYNPNDYYVRIEYPGNGNTHEIPFRGSKGELAKKLEDEAEEHNMPIDVEIYPPDDSAGGSA [r2_161_TrROS]”, the “folding stability dG unfold” value was less than -1 kcal/mol.
Consider “SAGGSPPLVVEEELLSEKTLPEPGTGTVTLTRRTIRDPTADVEWEERFTVTTPPDGSVEVSSTRERLLSAGG [r13_917_JUSTAS]”, for which the “folding stability dG unfold” value is less than -1 kcal/mol.
“SAGGSTVTVEVETEEEAEALLQGLPELEEVVVVIPGEGEPVEKPVKIEPPAPGVLGETPLPRPSPRLLSAGG [r13_183_JUSTAS]”: the “folding stability dG unfold” value was less than -1 kcal/mol.
As for “SAGGSTVVTEVSVSPGNPTLTLDSKTPDGKVVAKRVAAPADATATFEVKQTINGNPVITTVTQAPEASAGGS [r16_672_JUSTAS]”, the “folding stability dG unfold” value is less than -1 kcal/mol.
The figure for “SAGGSVDVDEEEAEKLIEEALKKGLEVTITARLPDGGVRVLKYEGPDRKRTVIEELPVPPSPLNPALLSAGG [r13_839_JUSTAS]” is less than -1 kcal/mol; for “SAGGSVEISEEELEKLIEEGRVDKKEEYPEGVPSKKYETEKLGKELGKPITINVTTTPDGKAVAKVLKSAGG [r13_163_JUSTAS]” it is less than -1 kcal/mol; for “SAGGSVLPPDAVVYGTETRPFPNGETVEVERERRFPPRPPAPAGVLVEYPDGTVVPAPSPEEAAALLSAGGS [r16_580_JUSTAS]” it is less than -1 kcal/mol.
